Publication PMC4569726

How the values were obtained:
[1] = target: RSV F single-chain double mutant with fibritin trimerization domain (SC-DM: N67I, S215P) (respiratory syncytial virus strain A2 (subgroup A) | not stated); experiment: SEC-MALS + native gel or EMSA; purified protein; SEC-MALS: 40 μg on TSK-Gel G3000SWxl in 150 mM NaPi, 50 mM NaCl, pH 7.0; NativePAGE Bis-Tris gel
[2] = target: Soluble, stabilized processed RSV F variant with fibritin motif (PR-TM: N67I, S215P, D486N) (respiratory syncytial virus strain A2 (subgroup A) | not stated); experiment: SDS-PAGE without reducing agents and without boiling, Western blot; samples treated with standard 0.1% SDS buffer at room temperature
[3] = target: RSV F single-chain triple mutant with fibritin trimerization domain (SC-TM: N67I, S215P, E487Q) (respiratory syncytial virus strain A2 (subgroup A) | not stated); experiment: SEC-MALS + native gel or EMSA; purified protein; SEC-MALS: 40 μg on TSK-Gel G3000SWxl in 150 mM NaPi, 50 mM NaCl, pH 7.0; NativePAGE Bis-Tris gel

RSV F single-chain double mutant with fibritin trimerization domain (SC-DM: N67I, S215P) (domain or fragment)
stoichiometry N [1]: 3

Soluble, stabilized processed RSV F variant with fibritin motif (PR-TM: N67I, S215P, D486N) (domain or fragment)
percent monomerized by 0.1% SDS [2]: 50%

RSV F single-chain triple mutant with fibritin trimerization domain (SC-TM: N67I, S215P, E487Q) (domain or fragment)
stoichiometry N [3]: 3
